According to patent publication US12497460B2, “Anti-MSR1 antibodies and methods of use thereof” (REGENERON PHARMACEUTICALS, INC., priority 2018, dated 2025):
Numbering of substitutions follows the chain as printed. Names and notes keep the numbering of the source. Blank lines part the entries; values can stand above or below the molecule they belong to.

Key:
[1] = biological target: T1, His9-mMSR1 (mouse MSR1 extracellular domain) (Mus musculus, UniProt P30204); experiment: OCTET bio-layer interferometry binding kinetics of anti-MSR1 mAbs; conditions: 25° C., antibody-capture format, analyte His9-mMSR1; for kd: * = no dissociation observed, kd manually fixed at 5.00E−05; for t½: dissociative half-life
T1 construct: mouse MSR1 extracellular domain expressed with a N-terminal nonahistidine tag; His9 (nonahistidine) (N); purchased R&D Systems 1797-MS
T1 sequence (P30204 79-458 limits assumed): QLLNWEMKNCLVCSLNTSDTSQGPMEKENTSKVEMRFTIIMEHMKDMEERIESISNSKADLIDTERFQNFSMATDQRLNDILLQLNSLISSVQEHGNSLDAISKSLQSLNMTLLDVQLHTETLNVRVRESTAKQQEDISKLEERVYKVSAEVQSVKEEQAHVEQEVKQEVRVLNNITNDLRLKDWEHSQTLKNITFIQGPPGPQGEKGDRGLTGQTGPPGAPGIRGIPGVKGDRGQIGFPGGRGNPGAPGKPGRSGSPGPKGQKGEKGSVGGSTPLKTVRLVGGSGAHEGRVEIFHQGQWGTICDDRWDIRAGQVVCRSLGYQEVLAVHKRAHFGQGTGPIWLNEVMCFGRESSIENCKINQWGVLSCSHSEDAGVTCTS
Method: Binding affinities and kinetic constants of human anti-MSR1 antibodies for different MSR1 reagents were determined using a real time, label-free bio-layer interferometry assay on an OCTET® HTX biosensor platform (Pall FortéBio Corp., Menlo Park, CA). The experiment was performed at 25° C. in 10 mM HEPES, 150 mM NaCl, 3 mM EDTA, 0.05% v/v Surfactant Tween-20, and 1 mg/mL BSA, pH7.4 (HBS-EBT) buffer with the plate shaking at the speed of 1000 rpm. Binding studies were performed on human MSR1 extracellular domain expressed with a N-terminal nonahistidine tag (His9-hMSR1; R&D Systems, Cat #2708-MS), monkey MSR1 extracellular domain expressed with a N-terminal myc-myc-hexahistidine tag (HMM-mfMSR1; SEQ ID NO: 418), and mouse MSR1 extracellular domain expressed with a N-terminal nonahistidine tag (His9-mMSR1; R&D Systems, Cat #1797-MS). The anti-MSR1 monoclonal antibodies were captured by dipping either anti-human Fc (AHC) or anti-mouse Fc (AMC) Octet biosensors in wells containing 5 μg/mL or 10 μg/mL of anti-MSR1 monoclonal antibody for 45-90 seconds. The AHC captured anti-MSR1 monoclonal antibodies were then dipped in wells containing 50 nM of His9-mMSR1, while the AMC captured anti-MSR1 monoclonal antibodies were dipped in wells containing different concentrations of His9-hMSR1 or HMM-mfMSR1 (100 nM, 25 nM) or 100 nM His9-mMSR1. The binding of different MSR1 reagents to the captured anti-MSR1 monoclonal antibody was measured for 4 minutes and the dissociation of monoclonal antibody bound MSR1 reagent was monitored for 8-10 minutes in HBS-EBT buffer.
The association rate (ka) and dissociation rate (kd) were determined by fitting the real-time binding sensorgrams to a 1:1 binding model with mass transport limitation using Scrubber 2.0c curve-fitting software. Binding dissociation equilibrium constant (KD) and dissociative half-life (t½) were calculated from the kinetic rates as: […]
Binding kinetics parameters for His9-hMSR1, HMM-mfMSR1 or His9-mMSR1 binding to different anti-MSR1 monoclonal antibodies of the invention at 25° C. are shown in Tables 8 and 9.

[2] = biological target: T2, MSR1-mediated Dil-OxLDL uptake in HEK293.Myc.hMSR1 cells (Homo sapiens, UniProt P21757); experiment: Ligand uptake assay, Dil-OxLDL; format: cell-based; conditions: 10 μg/mL Dil-OxLDL; for IC50: read-out: Dil-Oxidized LDL IC50; for Dil-Oxidized LDL % Inhibition: maximum inhibition
T2 construct: expressed in transfected cells; host or cells: HEK293 (lentiviral transduction, hygromycin selection)
T2 sequence (P21757 1-451): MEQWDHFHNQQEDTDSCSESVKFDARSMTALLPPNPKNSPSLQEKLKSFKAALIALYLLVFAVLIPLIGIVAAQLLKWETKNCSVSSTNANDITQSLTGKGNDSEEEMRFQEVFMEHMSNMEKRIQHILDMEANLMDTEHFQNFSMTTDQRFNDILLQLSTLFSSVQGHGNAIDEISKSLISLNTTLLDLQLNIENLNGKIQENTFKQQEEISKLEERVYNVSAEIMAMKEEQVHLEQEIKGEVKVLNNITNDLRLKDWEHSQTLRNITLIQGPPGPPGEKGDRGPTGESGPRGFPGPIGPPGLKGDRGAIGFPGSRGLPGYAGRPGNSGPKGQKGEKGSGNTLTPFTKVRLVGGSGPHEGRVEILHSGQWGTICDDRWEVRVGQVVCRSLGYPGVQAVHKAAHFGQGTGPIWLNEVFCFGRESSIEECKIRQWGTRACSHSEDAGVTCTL
Method: A bioassay was generated to assess the ability of the exemplary anti-MSR1 antibodies to regulate the uptake of certain MSR1 ligands.
Generation of MSR1-expressing cell lines for assay. […] The resulting cell line, referred to here as “HEK293.Myc.hMSR1”, was selected and maintained in DMEM containing 10% FIBS, NEAA, penicillin/streptomycin, L-glutamine, and 100 μg/mL hygromycin.
Ligand uptake assay. […] After 30 minutes, either oxidized or acetylated low-density lipoprotein (LDL) labeled with 1,1′dioctadecyl-3,3,3′,3′-tetramethylindocarbocyanine perchlorate (referred to as “Dil-OxLDL” or “Dil-AcLDL,” respectively) was added to the cells at a constant concentration of 10 μg/mL. […] Results were analyzed using nonlinear regression (4-parameter logistics) with the Prism 7 program to obtain EC50 and IC50 values. The percentage of inhibition was calculated with the Relative Fluorescent Unit (RFU) values by using the following equation: […]
In the equation, “RFUBaseline” is the fluorescence value from the cells treated with 10 μg/mL ligand without antibodies, “RFUInhibition” is the minimum fluorescence value with for a particular antibody with 10 μg/mL ligand, and “RFUBackground” is the fluorescence value from cells without any ligand or antibodies.

B1: H1H21227N-N297Q: "modified versions of 21227N (H1H21227N-N297Q and H1H21227N-N297D)"; anti-MSR1 antibody "with a N297Q single point mutation" (antibody, V domains shown)
VH: QVQLVQSGAEVKKPGASVKVSCKVSGYTLTELSIHWVRQVPGKGLEWMGGFDPEEGETIFAQEFRDRVTLTEDTSPDTAYMELSSLKSEDAAVYYCTTPRYCNNGICYDYWGQGTLVTVSS
VL: DIQMTQSPSSLSASVGDRVTITCRASQSISNYLNWYQQKPGKAPKLLIYTASSLQSGVPSRFSGSGSGTDFTLTISSLQTEDFATYYCQQSYSNFPITFGQGTRLEIKR
Kd [1]: 1.89 nM | ka [1]: 374000 M⁻¹ s⁻¹ | kd [1]: 0.000708 s⁻¹ | t½ [1]: 16 min | IC50 [2]: 1.8 nM | Dil-Oxidized LDL % Inhibition [2]: 94%

B2: H1H21227N: "anti-MSR1 antibodies ... (21227N, 21231N, 21234N) were produced with the original human Fcγ portion"; "H1H" = human IgG1 Fc (antibody, V domains shown)
VH: B1 VH
VL: B1 VL
modifications: human IgG1 Fc
notes: "anti-MSR1 antibodies ; (21227N, 21231N, 21234N) were produced with the original human Fcγ portion"; "H1H" = human IgG1 Fc
Kd [1]: 1.97 nM | ka [1]: 415000 M⁻¹ s⁻¹ | kd [1]: 0.000816 s⁻¹ | t½ [1]: 14 min | IC50 [2]: 2 nM | Dil-Oxidized LDL % Inhibition [2]: 89%

B4: H1H21227N-N297D: "The 21227N antibody was also produced as a third version with a N297D mutation" (antibody, V domains shown)
VH: B1 VH
VL: B1 VL
Kd [1]: 1.71 nM | ka [1]: 461000 M⁻¹ s⁻¹ | kd [1]: 0.000786 s⁻¹ | t½ [1]: 15 min

Continued, values first:

IC50 [2]: 3.6 nM | Dil-Oxidized LDL % Inhibition [2]: 78%
B3: H1H21231N: "anti-MSR1 antibodies ... (21227N, 21231N, 21234N) were produced with the original human Fcγ portion"; "H1H" = human IgG1 Fc (antibody, V domains shown)
VH: EVQLVESGGGLVQPGGSLRLSCAASGFTFSDHYMDWVRQAPGKGLEWVGRTRNKANSHTTEYTASVTGRFTISRDDSRNSLYLQMNSLKTEDTAVYYCVRAGIIGTLFDYWGQGTLVTVSS
VL: B1 VL with S7F, N31S, Y32F, Y36F, L46F, T50A, T80P, N94S, F95P
modifications: human IgG1 Fc
notes: as for B2

Dil-Oxidized LDL IC50 [2]: no inhibition | maximum inhibition of Dil-OxLDL uptake [2]: no inhibition | Dil-Oxidized LDL % Inhibition [2]: no inhibition
B5: H1H27729P-N297Q: anti-MSR1 antibody "made with an N297Q single point mutation in human Fcγ portion" (antibody, V domains shown)
VH: QVQLVESGGGLVKPGGSLRLSCAASGFIFSDYYMSWIRQAPGKGLEWVSYISSSGTTIYGDSVKGRFTMSRDNAKNSLYLQMNSLRAEDTAVYYCARNYALFDYWGQGTLVTVSS
VL: DIQMTQSPSSLSASVGDRVTITCQASQDISKYLNWYQQKPGKAPKLLIYYTSNLETGVPSRFSGSGSGTDFTFTISSLQPEDIATYYCHQSDYLPFTFGPGTKVDIKR
